Laboratory results as given in US10766960 (dated 2020).
Positions count from the first letter of the chain named.

T1: FcgRIIa H (human, UniProt P12318)
T1 chain: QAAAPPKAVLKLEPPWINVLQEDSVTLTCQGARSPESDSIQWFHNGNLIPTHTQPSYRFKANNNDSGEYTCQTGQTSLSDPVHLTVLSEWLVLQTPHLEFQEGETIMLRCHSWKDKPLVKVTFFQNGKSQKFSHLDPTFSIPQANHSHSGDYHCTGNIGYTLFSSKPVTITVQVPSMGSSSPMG

T2: FcgRIIb (human, UniProt P31994)
T2 chain: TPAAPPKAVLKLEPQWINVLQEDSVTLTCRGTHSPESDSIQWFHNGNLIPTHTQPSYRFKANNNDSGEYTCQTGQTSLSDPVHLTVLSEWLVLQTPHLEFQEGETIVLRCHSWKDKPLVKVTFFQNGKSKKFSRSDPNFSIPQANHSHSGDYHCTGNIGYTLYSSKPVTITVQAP

T3: FcgRIIa R (human, UniProt P12318)
T3 chain: T1 chain with H134R

T4: FcgRIa (human, UniProt P12314)
T4 chain: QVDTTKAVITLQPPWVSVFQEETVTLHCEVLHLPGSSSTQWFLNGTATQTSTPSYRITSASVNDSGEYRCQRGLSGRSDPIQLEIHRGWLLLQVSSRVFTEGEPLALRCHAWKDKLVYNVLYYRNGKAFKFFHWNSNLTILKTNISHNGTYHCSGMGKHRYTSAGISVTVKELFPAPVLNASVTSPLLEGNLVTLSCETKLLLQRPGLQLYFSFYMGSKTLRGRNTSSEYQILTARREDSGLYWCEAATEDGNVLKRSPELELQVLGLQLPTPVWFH

B1: H240-Kn166/H240-Hl170/L73-k0 (antibody)
chain 1: QDQLVQSGAEVKKPGASVKVSCKASGFNIKDTYIQWVRQAPGQGLEWMGRIDPLRKQTKYREKFEGRVTITADTSTNTAYMELSSLRSEDTAVYYCVRSGREFDYWGQGTLVTVSSASTKGPSVFPLAPSSKSTSGGTAALGCLVKDYFPEPVTVSWNSGALTSGVHTFPAVLQSSGLYSLSSVVTVPSSSLGTQTYICNVNHKPSNTKVDKKVEPKSCDKTHTCPPCPAPEYYWGPMVFLFPPKPKDTLMISRTPEVTCVVVDVSDEDPEVKFNWYVDGVEVHNAKTKPREEQYNATYRVVSVLTVLHQDWLNGKEYKCKVSNKDAPAPIEKTISKAKGQPREPQVCTLPPSRDELTKNQVSLWCLVKGFYPSDIAVEWESNGQPENNYKTTPPVLDSDGSFFLYSKLTVDKSRWQQGNVFSCSVMHEALHNHYTQKSLSLSP
chain 2: QDQLVQSGAEVKKPGASVKVSCKASGFNIKDTYIQWVRQAPGQGLEWMGRIDPLRKQTKYREKFEGRVTITADTSTNTAYMELSSLRSEDTAVYYCVRSGREFDYWGQGTLVTVSSASTKGPSVFPLAPSSKSTSGGTAALGCLVKDYFPEPVTVSWNSGALTSGVHTFPAVLQSSGLYSLSSVVTVPSSSLGTQTYICNVNHKPSNTKVDKKVEPKSCDKTHTCPPCPAPELLGGPSVFLFPPKPKDTLMISRTPEVTCVVVDVSHEEPEVKFNWYVDGVEVHNAKTKPREEQYNSTYRVVSVLTVLHQDWLNGKEYKCKVSNDAAPKPIEETISKAKGQPREPQVYTLPPSRCELTKNQVSLSCAVKGFYPSDIAVEWESNGQPENNYKTTPPVLDSDGSFFLVSKLTVDKSRWQQGNVFSCSVMHEALHNHYTQKSLSLSP
chain 3: DIQMTQSPSSLSASVGDRVTITCRASQDIHKYIAWYQQKPGQAPRLLIQYTSTLQPGVPSRFSGSGSGTDYTFTISSLQPEDIATYYCLQYEQLRTFGGGTKVEIKRTVAAPSVFIFPPSDEQLKSGTASVVCLLNNFYPREAKVQWKVDNALQSGNSQESVTEQDSKDSTYSLSSTLTLSKADYEKHKVYACEVTHQGLSSPVTKSFNRGEC
B2: H240-Kn173/H240-Hl068/L73-k0 (antibody)
chain 1: B1 chain 1 with A327L, I331Q
chain 2: B1 chain 2 with A327L
chain 3: B1 chain 3
B3: H240-Kn138/H240-Hl147/L73-k0 (antibody)
chain 1: B1 chain 1 with A327W
chain 2: B1 chain 2 with A327W
chain 3: B1 chain 3
B4: H240-Kn172/H240-Hl177/L73-k0 (antibody)
chain 1: B1 chain 1 with A327L, I331M
chain 2: B1 chain 2 with A327L, I331Q
chain 3: B1 chain 3
B5: H240-Kn120/H240-Hl174/L73-k0 (antibody)
chain 1: B1 chain 1 with A327L
chain 2: B1 chain 2 with A327L, I331E
chain 3: B1 chain 3
B6: H240-Kn178/H240-Hl068/L73-k0 (antibody)
chain 1: B1 chain 1 with A327L, K333Y
chain 2: B1 chain 2 with A327L
chain 3: B1 chain 3
B7: H240-Kn138/H240-Hl068/L73-k0 (antibody)
chain 1: B1 chain 1 with A327W
chain 2: B1 chain 2 with A327L
chain 3: B1 chain 3
B8: H240-Kn120/H240-Hl150/L73-k0 (antibody)
chain 1: B1 chain 1 with A327L
chain 2: B1 chain 2 with A327L, I331T
chain 3: B1 chain 3
B9: H240-Kn120/H240-Hl182/L73-k0 (antibody)
chain 1: B1 chain 1 with A327L
chain 2: B1 chain 2 with A230H, A327L
chain 3: B1 chain 3
B10: H240-Kn120/H240-Hl170/L73-k0 (antibody)
chain 1: B1 chain 1 with A327L
chain 2: B1 chain 2
chain 3: B1 chain 3
B11: H240-Kn149/H240-Hl068/L73-k0 (antibody)
chain 1: B1 chain 1 with A327W, K333L
chain 2: B1 chain 2 with A327L
chain 3: B1 chain 3
B12: GpH7-TA7/GpH7-B3/GpL16-k0 (antibody)
chain 1: QVQLVQSGAEVKKPGASVTVSCKASGYTFTDYEMHWIRQPPGEGLEWIGAIDPKTGDTAYSESFQDRVTLTADKSTSTAYMELSSLTSEDTAVYYCTRFYSYTYWGQGTLVTVSSASTKGPSVFPLAPSSKSTSGGTAALGCLVKDYFPEPVTVSWNSGALTSGVHTFPAVLQSSGLYSLSSVVTVPSSSLGTQTYICNVNHKPSNTKVDKKVEPKSCDKTHTCPPCPAPEYLWGPSVFLFPPKPKDTLMISRTPEVTCVVVDVSHEDPEVKFNWYVDGVEVHNAKTKPREEQYNATYRVVSVLTVLHQDWLNGKEYKCKVSNKALPAPIEKTISKAKGQPREPQVYTLPPSRKELTKNQVSLTCLVKGFYPSDIAVEWESNGQPENNYKTTPPVLDSDGSFFLYSKLTVDKSRWQQGNVFSCSVMHEALHNRYTQKSLSLSP
chain 2: not shown
chain 3: DIVMTQSPLSLPVTPGEPASISCQASESLVHSNRNTYLHWYLQKPGQSPQLLIYKVSNRFSGVPDRFSGSGSGTDFTLKISRVEAEDVGVYYCSQNTHVPPTFGQGTKVEIERTVAAPSVFIFPPSDEQLKSGTASVVCLLNNFYPREAKVQWKVDNALQSGNSQESVTEQDSKDSTYSLSSTLTLSKADYEKHKVYACEVTHQGLSSPVTKSFNRGEC
B13: GpH7-A57/GpH7-B78/GpL16-k0 (antibody)
chain 1: B12 chain 1 with Y232L, W234G, S237D, A296S, A328L, I330E
chain 2: B12 chain 1 with Y232L, W234G, S237D, A296S, A328L, I330E, K354D, R433H, K437E
chain 3: B12 chain 3
B14: GpH7-A5/GpH7-B78/GpL16-k0 (antibody)
chain 1: not shown
chain 2: B12 chain 1 with Y232L, W234G, S237D, A296S, A328L, I330E, K354D, R433H, K437E
chain 3: B12 chain 3
B15: GpH7-A5/GpH7-B3/GpL16-k0 (antibody)
chain 1: not shown
chain 2: not shown
chain 3: B12 chain 3

Molecular target: T1, FcgRIIa H
Experiment: SPR

B1 was tested. Which Kd did it give?
The Kd was 22 nM.

With B2 as the binder, how does the Kd read?
Its Kd is 57 nM.

Which Kd does the source give for B3 here?
Its Kd is 130 nM.

How did the Kd turn out when B4 was run?
Its Kd is 57 nM.

With B5 as the binder, how does the Kd read?
Its Kd is 55 nM.

With B6 as the binder, how does the Kd read?
Its Kd is 65 nM.

For B7, which Kd is on record?
Its Kd is 25 nM.

How did the Kd turn out when B8 was run?
The Kd was 35 nM.

B9 was tested. Which Kd did it give?
The Kd was 77 nM.

Which Kd does the source give for B10 here?
Its Kd is 18 nM.

How did the Kd turn out when B11 was run?
Its Kd is 26 nM.

Molecular target: T2, FcgRIIb
Experiment: SPR

Which Kd does the source give for B1 here?
Its Kd is 200 nM.

For B2, which Kd is on record?
The Kd was 280 nM.

B3 was tested. Which Kd did it give?
The Kd was 110 nM.

How did the Kd turn out when B4 was run?
Its Kd is 160 nM.

How did the Kd turn out when B5 was run?
The Kd was 130 nM.

For B6, which Kd is on record?
Its Kd is 110 nM.

For B7, which Kd is on record?
Its Kd is 130 nM.

For B8, which Kd is on record?
The Kd was 98 nM.

With B9 as the binder, how does the Kd read?
Its Kd is 240 nM.

Which Kd does the source give for B10 here?
Its Kd is 67 nM.

Which Kd does the source give for B11 here?
Its Kd is 150 nM.

Molecular target: T5, FcgRIIIa F (human, UniProt P08637)
Experiment: SPR

T5 sequence (P08637 17-208): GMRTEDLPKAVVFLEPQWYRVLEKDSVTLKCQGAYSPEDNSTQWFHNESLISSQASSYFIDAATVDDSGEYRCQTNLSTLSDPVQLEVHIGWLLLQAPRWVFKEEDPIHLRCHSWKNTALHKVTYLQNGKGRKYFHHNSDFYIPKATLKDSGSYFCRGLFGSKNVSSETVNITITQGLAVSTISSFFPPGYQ

For B12, which Kd is on record?
The Kd was 320 nM.

B13 was tested. Which Kd did it give?
The Kd was 6.2 nM.

How did the Kd turn out when B14 was run?
The Kd was 54 nM.

With B15 as the binder, how does the Kd read?
The Kd was 1600 nM.

Molecular target: T2, FcgRIIb
Experiment: SPR
Remark: another data set of the same source

B12 was tested. Which Kd did it give?
The Kd was 4500 nM.

For B13, which Kd is on record?
The Kd was 610 nM.

For B14, which Kd is on record?
Its Kd is 430 nM.

B15 was tested. Which Kd did it give?
Its Kd is 3100 nM.

Molecular target: FcgRIIIa V (human, UniProt P08637)
Experiment: SPR

FcgRIIIa V, sequence (P08637 17-208 F176V): as the sequence (P08637 17-208) above, with F160V counted along it

B1 was tested. Which Kd did it give?
Its Kd is 1 nM.

With B2 as the binder, how does the Kd read?
Its Kd is 0.4 nM.

With B3 as the binder, how does the Kd read?
Its Kd is 16 nM.

Which Kd does the source give for B4 here?
The Kd was 0.22 nM.

B5 was tested. Which Kd did it give?
The Kd was 0.036 nM.

Which Kd does the source give for B6 here?
The Kd was 0.19 nM.

For B7, which Kd is on record?
Its Kd is 0.43 nM.

With B8 as the binder, how does the Kd read?
The Kd was 0.57 nM.

B9 was tested. Which Kd did it give?
The Kd was 0.29 nM.

How did the Kd turn out when B10 was run?
Its Kd is 0.93 nM.

How did the Kd turn out when B11 was run?
The Kd was 0.32 nM.

Molecular target: T5, FcgRIIIa F
Experiment: SPR
Remark: another data set of the same source

How did the Kd turn out when B1 was run?
The Kd was 4.2 nM.

Which Kd does the source give for B2 here?
The Kd was 1.8 nM.

How did the Kd turn out when B3 was run?
The Kd was 22 nM.

For B4, which Kd is on record?
Its Kd is 2 nM.

For B5, which Kd is on record?
The Kd was 0.51 nM.

Which Kd does the source give for B6 here?
Its Kd is 1.4 nM.

For B7, which Kd is on record?
The Kd was 3.7 nM.

With B8 as the binder, how does the Kd read?
Its Kd is 3 nM.

For B9, which Kd is on record?
Its Kd is 3.1 nM.

How did the Kd turn out when B10 was run?
Its Kd is 3.9 nM.

How did the Kd turn out when B11 was run?
The Kd was 1.5 nM.

Molecular target: T3, FcgRIIa R
Experiment: SPR

Which Kd does the source give for B1 here?
The Kd was 31 nM.

With B2 as the binder, how does the Kd read?
The Kd was 40 nM.

For B3, which Kd is on record?
Its Kd is 11 nM.

Which Kd does the source give for B4 here?
The Kd was 29 nM.

With B5 as the binder, how does the Kd read?
The Kd was 30 nM.

B6 was tested. Which Kd did it give?
Its Kd is 26 nM.

For B7, which Kd is on record?
Its Kd is 19 nM.

For B8, which Kd is on record?
The Kd was 20 nM.

Which Kd does the source give for B9 here?
The Kd was 40 nM.

B10 was tested. Which Kd did it give?
The Kd was 8.6 nM.

B11 was tested. Which Kd did it give?
Its Kd is 19 nM.

Molecular target: T4, FcgRIa
Experiment: SPR

With B1 as the binder, how does the Kd read?
Its Kd is 0.066 nM.

For B2, which Kd is on record?
Its Kd is 0.12 nM.

With B3 as the binder, how does the Kd read?
Its Kd is 0.31 nM.

With B4 as the binder, how does the Kd read?
Its Kd is 0.25 nM.

For B5, which Kd is on record?
Its Kd is 0.14 nM.

B6 was tested. Which Kd did it give?
Its Kd is 0.23 nM.

With B7 as the binder, how does the Kd read?
Its Kd is 0.16 nM.

With B8 as the binder, how does the Kd read?
The Kd was 0.39 nM.

Which Kd does the source give for B9 here?
The Kd was 0.18 nM.

Which Kd does the source give for B10 here?
The Kd was 0.19 nM.

How did the Kd turn out when B11 was run?
Its Kd is 0.38 nM.
